This note sets out measurements from patent publication US20260151494A1 (ARO BIOTHERAPEUTICS, published 2026).

The target of experiment [1] is T1, human CD71 extracellular domain (human, UniProt P02786 89-760, biotinylated).
T1 construct: also called hCD71; CD71-ECD
The experiment in a line: primary ELISA. (In general: ELISA stands for enzyme-linked immunosorbent assay.)

Experiment [2] concerns the target T2, apical domain of human CD71 (human, UniProt P02786 189-383, limits assumed).
T2 construct: domain: apical domain; Screen 4 panned on human apical domains, the ELISA text says only 'apical domain'
The experiment is described as follows: primary ELISA. Also: test concentration or dose not given here.

For experiment [3], the target named is T1, human CD71 extracellular domain. The experiment is described as follows: primary ELISA, RLU over HSA.
The target in experiment [4] is T2, apical domain of human CD71. The experiment is described as follows: primary ELISA, RLU over HSA.
For experiment [5], the target named is T3, human apical domain of CD71 (human, UniProt P02786 189-383, limits assumed).
T3 construct: domain: apical domain
T3 sequence (P02786 189-383 limits assumed): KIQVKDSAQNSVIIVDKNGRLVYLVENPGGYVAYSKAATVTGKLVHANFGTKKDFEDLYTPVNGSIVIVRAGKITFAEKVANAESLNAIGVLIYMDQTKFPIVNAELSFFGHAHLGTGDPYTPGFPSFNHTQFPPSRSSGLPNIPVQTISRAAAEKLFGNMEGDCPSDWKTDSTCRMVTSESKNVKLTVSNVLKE
The experiment in a line: primary ELISA; signal over HSA control. Also: test concentration or dose not given here.

Experiment [6] addresses T4, human CD71 extracellular domain (human, UniProt P02786 89-760).
T4 construct: also called hCD71; CD71-ECD
The experiment is described as follows: primary ELISA; signal over HSA control. Also: test concentration or dose not given here.

Experiment [7] concerns the target T3, human apical domain of CD71. The experiment is described as follows: primary ELISA. Also: test concentration or dose not given here.
The target in experiment [8] is T4, human CD71 extracellular domain. The experiment in a line: primary ELISA. Also: test concentration or dose not given here.

T2 sequence (P02786 189-383 limits assumed): as above
T1 sequence (P02786 89-760): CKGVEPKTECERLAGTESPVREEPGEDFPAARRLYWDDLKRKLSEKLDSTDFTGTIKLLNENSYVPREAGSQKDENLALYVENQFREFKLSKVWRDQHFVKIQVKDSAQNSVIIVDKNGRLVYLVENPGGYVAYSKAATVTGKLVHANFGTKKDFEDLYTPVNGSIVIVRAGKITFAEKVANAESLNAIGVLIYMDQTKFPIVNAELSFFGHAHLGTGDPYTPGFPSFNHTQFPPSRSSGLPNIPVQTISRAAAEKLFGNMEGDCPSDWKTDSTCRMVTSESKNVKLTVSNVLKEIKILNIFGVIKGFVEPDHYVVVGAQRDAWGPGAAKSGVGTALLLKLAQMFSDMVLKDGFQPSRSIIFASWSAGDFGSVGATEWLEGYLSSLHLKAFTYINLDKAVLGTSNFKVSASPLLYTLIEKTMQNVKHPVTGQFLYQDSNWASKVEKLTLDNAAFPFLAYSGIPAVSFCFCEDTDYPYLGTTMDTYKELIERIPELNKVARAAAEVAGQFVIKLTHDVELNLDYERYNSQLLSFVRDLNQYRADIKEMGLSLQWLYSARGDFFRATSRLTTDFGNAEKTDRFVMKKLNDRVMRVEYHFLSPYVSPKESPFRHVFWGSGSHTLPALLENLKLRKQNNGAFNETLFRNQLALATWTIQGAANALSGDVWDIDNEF
T4 sequence (P02786 89-760): as above

B1: CD71-binding FN3 domain of SEQ ID NO: 507 (designed binder)
chain: MLPAPKNLVVSRVTEDSARLSWTAPDAAFDSFFIGYLEPQPPGEAIHLLVPGSERSYDLTGLKPGTEYNVTIQGVKGGFPSMPLSAIFTT
Consider B1, for which the RLU in experiment [1] was 3.52e+06 RLU; in experiment [2] it was 4.83e+06 RLU. Further, the “hCD71:HSA” value in experiment [3] stood at 178. Besides, the “Apical domain:HSA” value in experiment [4] stood at 245.

B2: CD71-binding FN3 domain of SEQ ID NO: 451 (designed binder)
chain: MLPAPKNLVVSRVTEDSARLSWTAPDAAFDSFFIGYLEPQPPGEAIGLLVPGSERSYDLTGLKPGTEYNVTIQGVKGGFPSIPLVADFTT
As for B2, the RLU is 5.23e+06 RLU in experiment [1] and 6.08e+06 RLU in experiment [2]. Further, the “hCD71:HSA” value in experiment [3] was 129. The “Apical domain:HSA” value in experiment [4] was found to be 151.

B3: CD71-binding FN3 domain of SEQ ID NO: 446 (designed binder)
chain: MLPAPKNLVVSRVTEDSARLSWTAPDAAFDSFFIGYLEPQPPGEAIQLFVPGSERSYDLTGLKPGTEYNVTIQGVKGGFPSLPLIAYFTT
On to B3, for which the figures for the RLU in experiment [1] and in experiment [2] were 4.75e+06 RLU and 5.51e+06 RLU, respectively. Also, in experiment [3], the “hCD71:HSA” value is 37. Moreover, in experiment [4], the “Apical domain:HSA” value came out at 42.

B4: CD71-binding FN3 domain of SEQ ID NO: 454 (designed binder)
chain: MLPAPKNLVVSRVTEDSARLSWTAPDAAFDSFFIGYLEPQPPGEAINLTVPGSERSYDLTGLKPGTEYNVTIQGVKGGFPSYPLQASFTT
For the molecule B4, the values for the RLU in experiment [1] and in experiment [2] were 4.18e+06 RLU and 4.2e+06 RLU, respectively. The “hCD71:HSA” value in experiment [3] was found to be 226. Besides, in experiment [4], the “Apical domain:HSA” value was determined as 227.

B5: CD71-binding FN3 domain of SEQ ID NO: 448 (designed binder)
chain: MLPAPKNLVVSRVTEDSARLSWTAPDAAFDSFFIGYLEPQPPGEAIDLYVPGSERSYDLTGLKPGTEYNVTIQGVKGGFPSMPLYARFTT
Turning to B5, the RLU in experiment [1] was 4.73e+06 RLU; in experiment [2], 4.76e+06 RLU. Further, in experiment [3], the “hCD71:HSA” value was determined as 74. Besides, in experiment [4], the “Apical domain:HSA” value is 74.

B6: CD71-binding FN3 domain of SEQ ID NO: 456 (designed binder)
chain: MLPAPKNLVVSRVTEDSARLSWTAPDAAFDSFFIGYLEPQPPGEAIALYVPGSERSYDLTGLKPGTEYNVTIQGVKGGFPSHPLQAHFTT
As for B6, the RLU is 4.5e+06 RLU in experiment [1] and 4.31e+06 RLU in experiment [2]. In experiment [3], the “hCD71:HSA” value stood at 302. Further, the “Apical domain:HSA” value in experiment [4] came to 289.

B7: CD71-binding FN3 domain of SEQ ID NO: 457 (designed binder)
chain: MLPAPKNLVVSRVTEDSARLSWTAPDAAFDSFFIGYLEPQPPGEAIVLLVPGSERSYDLTGLKPGTEYNVTIQGVKGGFPSAPLVATFTT
For the molecule B7, the RLU in experiment [1] was found to be 5.54e+06 RLU; in experiment [2], 5.78e+06 RLU. For the same molecule, the “hCD71:HSA” value in experiment [3] was 51. Besides, the “Apical domain:HSA” value in experiment [4] was 53.

B8: CD71-binding FN3 domain of SEQ ID NO: 459 (designed binder)
chain: MLPAPKNLVVSRVTEDSARLSWTAPDAAFDSFFIRYLEPQPPGEAIHLSVPGSERSYDLTGLKPGTEYNVTIQGVKGGFPSMPLYAIFTT
Consider B8, for which the RLU in experiment [1] was 2.5e+06 RLU; in experiment [2], 2.61e+06 RLU. The “hCD71:HSA” value in experiment [3] is 191. In addition, the “Apical domain:HSA” value in experiment [4] is 199.

B9: CD71-binding FN3 domain of SEQ ID NO: 449 (designed binder)
chain: MLPAPKNLVVSRVTEDSARLSWTAPDAAFDSFYIAYQELSLWGEAIVLTVPGSERSYDLTGLKPGTEYNVTIQGVKGGFPSLPLAAQFTT
In the case of B9, the RLU in experiment [1] stood at 6.75e+06 RLU; in experiment [2], 6.51e+06 RLU. Moreover, the “hCD71:HSA” value in experiment [3] amounted to 69. Further, the “Apical domain:HSA” value in experiment [4] amounted to 66.

B10: CD71-binding FN3 domain of SEQ ID NO: 452 (designed binder)
chain: MLPAPKNLVVSRVTEDSARLSWTAPDAAFDSFFIGYLEPQPPGEAIHLQVPGSERSYDLTGLKPGTEYNVTIQGVKGGFPSIPLVAQFTT
Consider B10, for which the RLU in experiment [1] worked out at 5.24e+06 RLU; in experiment [2] it was 4.23e+06 RLU. For the same molecule, the “hCD71:HSA” value in experiment [3] worked out at 88. The “Apical domain:HSA” value in experiment [4] was determined as 71.

B11: CD71-binding FN3 domain of SEQ ID NO: 453 (designed binder)
chain: MLPAPKNLVVSRVTEDSARLSWTAQDAAFDSFFIGYLEPQPPGEAIALLVPGSERSYDLTGLKPGTEYNVTIQGVKGGFPSHPLSASFTT
As to B11, the RLU in experiment [1] stood at 4.95e+06 RLU; in experiment [2], 5.12e+06 RLU. Further, the “hCD71:HSA” value in experiment [3] was 142. The “Apical domain:HSA” value in experiment [4] is 147.

B12: CD71-binding FN3 domain of SEQ ID NO: 447 (designed binder)
chain: MLPAPKNLVVSRVTEDSARLSWTAPDAAFDSFFIGYLEPQPPGEAIYLYVPGSERSYDLTGLKPGTEYNVTIQGVKGGFPSYPLTAQFTT
Consider B12, for which the RLU came out at 5.86e+06 RLU in experiment [1] and 5.25e+06 RLU in experiment [2]. The “hCD71:HSA” value in experiment [3] amounted to 152. In addition, the “Apical domain:HSA” value in experiment [4] is 136.

B13: CD71-binding FN3 domain of SEQ ID NO: 450 (designed binder)
chain: MLPAPKNLVVSRVTEDSARLSWTAPDAAFDSFFIGYLEPQPPGEAISLFVPGSERSYDLTGLKPGTEYNVTIQGVKGGFPSEPLAAKFTT
B13: the RLU was determined as 4.1e+06 RLU in experiment [1] and 6.26e+06 RLU in experiment [2]. Moreover, the “hCD71:HSA” value in experiment [3] turned out to be 166. In addition, in experiment [4], the “Apical domain:HSA” value was 253.

B14: CD71-binding FN3 domain SEQ ID NO 406 (designed binder)
chain: MLPAPKNLVVSRVTEDSARLSWTAPDAAFDSFFIDYDESLDSGEAIVLTVPGSERSYDLTGLKPGTEYNVTIQGVKGGFPSSPLEAAFTT
Take B14: the “Apical domain:HSA” value in experiment [5] was 478 ratio. The “hCD71:HSA” value in experiment [6] amounted to 185 ratio. Moreover, the RLU in experiment [7] was 3.68e+06 RLU; in experiment [8], 1.42e+06 RLU.

B15: CD71-binding FN3 domain SEQ ID NO 402 (designed binder)
chain: MLPAPKNLVVSRVTEDSARLSWTAPDAAFDSFGIYYWEYTGGEAIVLTVPGSERSYDLTGLKPGTEYVVRILGVKGGAYSTPLSAIFTT
Take B15: the “Apical domain:HSA” value in experiment [5] is 459 ratio. The “hCD71:HSA” value in experiment [6] amounted to 209 ratio. For the same molecule, the RLU in experiment [7] stood at 4.77e+06 RLU; in experiment [8], 2.17e+06 RLU.

B16: CD71-binding FN3 domain SEQ ID NO 384 (designed binder)
chain: MLPAPKNLVVSRVTEDSARLSWTAPDAAFDSFEIDYAENRHHGEAIALLVPGSERSYDLTGLKPGTEYIVFIGGVKGGRWSQPLVASFTT
As to B16, the “Apical domain:HSA” value in experiment [5] worked out at 57 ratio. In addition, in experiment [6], the “hCD71:HSA” value is 21 ratio. Also, the RLU was 5.55e+06 RLU in experiment [7] and 2.04e+06 RLU in experiment [8].

B17: CD71-binding FN3 domain SEQ ID NO 442 (designed binder)
chain: MLPAPKNLVVSRVTEDSARLSWTAPDAAFDSFEIWYAEWRQVGEAIVLTVPGSERSYDLTGLKPGTEYNVDIHGVKGGKVSWPLSAISTT
Regarding B17, the “Apical domain:HSA” value in experiment [5] was 217 ratio. Further, the “hCD71:HSA” value in experiment [6] came to 172 ratio. For the same molecule, the values for the RLU in experiment [7] and in experiment [8] were 6.23e+06 RLU and 4.92e+06 RLU, respectively.

B18: CD71-binding FN3 domain SEQ ID NO 444 (designed binder)
chain: MLPAPKNLVVSRVTEDSARLSWTAPDAAFDSFEIDYVEFIFTGEAIGLIVPGSERSYDLTGLKPGTKYWVTIAGVKGGEWSTPLQAFFTT
Regarding B18, in experiment [5], the “Apical domain:HSA” value was 89 ratio. In experiment [6], the “hCD71:HSA” value was 48 ratio. For the same molecule, the RLU was determined as 5.12e+06 RLU in experiment [7] and 2.8e+06 RLU in experiment [8].

B19: CD71-binding FN3 domain SEQ ID NO 397 (designed binder)
chain: MLPAPKNLVVSRVTEDSARLSWTAPDAAFDSFIILYGEAQYDGEAIVLTVPGSERSYDLTGLKPGTEYPVDIYGVKGGPYSWPLSAIFTT
For B19, in experiment [5], the “Apical domain:HSA” value stood at 84 ratio. The “hCD71:HSA” value in experiment [6] is 25 ratio. Moreover, the figures for the RLU in experiment [7] and in experiment [8] were 5.57e+06 RLU and 1.65e+06 RLU, respectively.
